Assay results as given in publication PMC6093232, “PROMIS, global analysis of PROtein–metabolite interactions using size separation in Arabidopsis thaliana” (The Journal of Biological Chemistry, 2018).

Experiments:
[1] = molecular target: human recombinant GAPDH protein (human) (UniProt P04406); test: nano-DSF (thermal shift, Prometheus NT.48); human GAPDH 1 μM with 500 μM dipeptide in 10 mM Tris-HCl pH 7.5, 0.5 M NaCl; thermal ramp 2 °C/min, 20–90 °C; Tm from F350/F330
[2] = molecular target: His6-GAPCP1 (A. thaliana) (UniProt Q9SAJ6); test: nano-DSF (thermal shift, Prometheus NT.48); plant GAPCs 0.2–0.25 mg/ml with 25 μM (GAPC1/2, GAPCP1) or 50 μM (GAPCP2) dipeptide in 1× PBS; thermal ramp 2 °C/min, 20–90 °C; Tm from F350/F330
[3] = molecular target: His6-GAPCP2 (A. thaliana) (UniProt Q5E924); test: as above
His6-GAPCP2 (A. thaliana), sequence (Q5E924 67-420): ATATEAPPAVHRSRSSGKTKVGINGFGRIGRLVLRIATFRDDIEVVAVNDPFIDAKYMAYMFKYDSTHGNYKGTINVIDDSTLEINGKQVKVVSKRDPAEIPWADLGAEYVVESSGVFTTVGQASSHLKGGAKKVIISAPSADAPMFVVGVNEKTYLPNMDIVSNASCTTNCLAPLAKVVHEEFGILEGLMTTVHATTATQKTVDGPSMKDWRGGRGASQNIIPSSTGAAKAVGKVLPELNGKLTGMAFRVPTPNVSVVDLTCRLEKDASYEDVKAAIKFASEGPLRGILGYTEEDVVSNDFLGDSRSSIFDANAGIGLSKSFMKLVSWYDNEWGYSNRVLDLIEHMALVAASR

His6-GAPCP1 (A. thaliana), sequence (Q9SAJ6 70-422): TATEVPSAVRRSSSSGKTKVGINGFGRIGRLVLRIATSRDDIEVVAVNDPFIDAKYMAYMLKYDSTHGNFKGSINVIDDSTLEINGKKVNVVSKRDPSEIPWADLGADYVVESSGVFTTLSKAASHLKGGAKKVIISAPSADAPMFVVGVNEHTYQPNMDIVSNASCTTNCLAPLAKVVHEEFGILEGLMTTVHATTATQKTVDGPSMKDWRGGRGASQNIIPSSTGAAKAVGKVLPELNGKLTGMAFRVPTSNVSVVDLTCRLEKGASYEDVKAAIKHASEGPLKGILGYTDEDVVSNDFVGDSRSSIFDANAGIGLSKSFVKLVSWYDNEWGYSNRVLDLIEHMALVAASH
human recombinant GAPDH protein (human), sequence (P04406 whole entry): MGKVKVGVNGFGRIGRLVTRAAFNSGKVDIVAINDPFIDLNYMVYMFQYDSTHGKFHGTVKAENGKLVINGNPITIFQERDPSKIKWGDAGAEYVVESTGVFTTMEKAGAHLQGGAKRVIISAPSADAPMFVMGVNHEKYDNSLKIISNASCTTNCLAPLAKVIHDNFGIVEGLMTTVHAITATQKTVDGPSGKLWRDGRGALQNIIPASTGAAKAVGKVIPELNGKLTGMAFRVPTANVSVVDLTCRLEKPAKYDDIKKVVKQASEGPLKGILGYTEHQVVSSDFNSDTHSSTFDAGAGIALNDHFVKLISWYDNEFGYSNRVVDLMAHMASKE

- increase of Tm with 500 μM Tyr–Asp [1]: 1.1 °C
- decrease of Tm with 25 μM Tyr–Asp [2]: 2 °C
- decrease of Tm with 50 μM Tyr–Asp [3]: 1.5 °C
Substance: dipeptide Tyr–Asp
